This note sets out measurements from PMC9263355 (2022).

In this experiment the target is 4-1BB (Homo sapiens, UniProt Q07011). In words: fluorescence anisotropy.
Sequence of 4-1BB (Q07011 24-255): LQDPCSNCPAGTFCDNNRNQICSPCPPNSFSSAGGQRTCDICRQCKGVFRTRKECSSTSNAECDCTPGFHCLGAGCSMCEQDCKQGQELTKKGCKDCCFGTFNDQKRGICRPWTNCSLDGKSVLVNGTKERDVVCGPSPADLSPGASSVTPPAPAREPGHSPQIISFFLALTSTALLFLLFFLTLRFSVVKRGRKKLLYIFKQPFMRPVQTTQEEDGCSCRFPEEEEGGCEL

B1: Galectin-9N N-terminal CRD (protein)
chain: MAFSGSQAPYLSPAVPFSGTIQGGLQDGLQITVNGTVLSSSGTRFAVNFQTGFSGNDIAFHFNPRFEDGGYVVCNTRQNGSWGPEERKTHMPFQKGMPFDLCFLVQSSDFKVMVNGILFVQYFHRVPFHRVDTISVNGSVQLSYISFQ
In the case of B1, the Kd (commonly the constant that tells how readily two partners part at equilibrium) was about 1.5 µM.
